Reference: US20100124555A1, “Compositions and Methods for Treating Pancreatic Tumors” (UNIVERSITE DE LA MEDITERRANEE, priority 2007, published 2010)

What was measured:
[1] = system: E-cadherin, β-catenin in SOJ-6 cells; assay: Immunoblotting and immunofluorescence of E-cadherin/β-catenin complex, SOJ-6; assay type: cell-based, human
Protocol: (§1) SOJ-6 cells were grown in 6-well culture plates in RPMI 1640 medium with 10% FCS. At subconfluency, the medium was removed and replaced for 24 hours by fresh RPMI medium with 10% inactivated FCS. SOJ-6 cells were then incubated with mAb16D10 or Cisplatin for 24 hours. At the end of incubation, cells were washed three times with ice-cold PBS (without […] and Mg^++) harvested and pelleted by centrifugation. Pellets were washed twice and lysed at 4° C. in 0.5 ml of lysis buffer (10 mM Tris-HCl pH 7.4, 150 mM NaCl, 1% Triton X-100, 1 mM benzamidine and phosphatase inhibitors). After lysis, homogenates were clarified by centrifugation at 10,000 g for 10 min at 4° C. An aliquot was saved for protein determination using the bicinchoninic acid assay (Pierce, Rockford, Ill.). Proteins (50 μg/lane) in reducing SDS buffer were separated onto 10, 12, or 15% polyacrylamide with 0.1% SDS (according to the molecular weight range of proteins to be separated). After electrophoretic migration, proteins were silver stained. Alternatively, proteins were transferred onto nitrocellulose membranes using a Mini Transblot electrophoretic cell (BioRad, Hercule, Oreg.), and transferred proteins were immunodetected by using appropriate primary and secondary antibodies. After washes, membranes were developed with a chemoluminescent substrate according to the manufacturer's instructions (Roche Diagnostics, Switzerland). In each experiment, a control was included by omitting primary antibodies or by using a non-immune serum.
These molecules might confer to these lipid raft domains the role of signalling. Immunoblottings were performed to examine the expression of E-cadherin and of β-catenin by pancreatic tumoral cells.
Several studies have shown that, in the absence of Wnt signalling, the phosphorylation of residues of β-catenin addressed this protein to degradation by the ubiquitin-dependent proteasome pathway (Aberle et al., 1997 EMBO J. 16(13): 3797-804 and Orford et al., 1997 Biol. Chem. 272(40): 24735-8). […] Furthermore, β-catenin may be regulated by GSK-3β, which itself is activated in cells once treated with mAb16D10 (FIG. 11). […] Lastly, we wanted to determine whether the association of E-cadherin, β-catenin, and 16D10 antigen in the rafts microdomains is required for mAb16D10 to induce apoptosis (FIG. 13).

[2] = system: SOJ-6 cells; assay: Annexin V / PI apoptosis assay; assay type: cell-based, human; conditions: antibodies 20 μg/ml, tunicamycin 25 or 50 μg/ml
Protocol: SOJ-6 cells (20.10^4 cells per well) were seeded onto 24 wells plates 72H before to start the experiment. Cells were incubated either with 20 μg/ml 16D10 IgM, or 20 μg/ml of a further recombinant 16D10 IgG1 antibody which contained the 16D10 variable regions linked fused to a human IgG1 constant region and human kappa light region for the heavy and light chains respectively, 25 μg/ml Tunicamycin or 50 μg/ml Tunicamycin. The AnnexinV/PI stainings were performed after 24H of culture using the AnnexinV-FITC Apoptosis Detection Kit I (BD Pharmingen) according to the manufacturer instructions. Stainings were acquired on a FACScan (Becton Dickinson, San Jose, Calif.) and results were analysed using FlowJo Software.

[3] = system: PANC-1 cells; assay: Cell-cycle distribution by propidium iodide flow cytometry, PANC-1; assay type: cell-based, human
[4] = system: 16D10 antigen on SOJ-6 cells; assay: Flow cytometry detection of antigen at the cell surface, SOJ-6; assay type: binding, human
Protocol: (§2) Detection of antigens at the surface of SOJ-6 and PANC-1 cells was carried out by indirect fluorescence under the following conditions: cells were released from culture plates by treatment with a non enzymatic dissociation liquid (Calbiochem) for 15 minutes at 37° C. All subsequent steps were carried out at 4° C. The cells were washed with phosphate buffered saline (PBS), fixed with 2% paraformaldehyde in PBS for 15 minutes, and washed with 1% BSA in PBS for 15 minutes. Antigens were exposed for 2 hours to specific antibodies, washed with PBS, and finally incubated for 45 minutes with appropriate FITC-labeled secondary antibodies. Cells were then washed, resuspended in isoflow buffer, and analyzed on Coulter FACSCalibur device.
(§3) Flow cytometry experiments were carried out to investigate whether the antigen recognized by 16D10 was found on the surface of cells. Results are shown in FIGS. 14 and 15, representing SOJ-6 and PANC-1 cells, respectively. […] In each case, 16D10 binding was compared to a negative control and a control mouse IgM (Sigma).

[5] = system: SOJ-6 cells; assay: Nuclear staining with DAPI (nuclear fragmentation); assay type: cell-based, human; conditions: RPMI induced no apoptosis
Protocol: After treatment with mAb16D10 or cisplatin, cells were washed in ice-cold PBS, fixed and permeablized with 70% ethanol for 5 min at […] and staining with diluted 1/1000 DAPI solution in PBS for 1 min at room temperature. The cells were then washed with PBS. The nuclear morphology of cells was examined by fluorescence microscopy.

[6] = system: 16D10 antigen on PANC-1 cells; assay: Flow cytometry detection of antigen at the cell surface, PANC-1; assay type: binding, human
Protocol: as §2, §3

[7] = system: SOJ-6 cells; assay: Effect of antibodies on SOJ-6 cell proliferation (Example 11); assay type: cell-based, human
Protocol: The effects of the IgM antibody 16D10 and the chimeric antibody rec16D10 on the proliferation of SOJ-6 cells were examined. Cells were incubated in culture with no antibodies, with various amounts of 16D10 or rec16D10 antibodies, or with an irrelevant IgG antibody. Antibody 16D10 reduced cell proliferation by approximately 50% at either 25 or 50 μg/ml, while rec16D10 reduced proliferation by more than 20% and more than 35% at 25 and 50 μg/ml, respectively (FIG. 18).

[8] = Tissue cross-reaction study (staining of healthy tissues); conditions: non-specific crossreactivity
Protocol: The staining specificity of the IgM 16D10 and chimeric IgG rec16D10 antibodies was assessed by examining their respective staining of various healthy tissues. […] Staining with the chimeric antibody reel 6D10, in contrast, was negative on each of these healthy tissues.

[9] = system: Bcl-2, Bax, caspases 8 and 9, PARP in SOJ-6 cells; assay: SDS-PAGE and western blot of apoptosis proteins; assay type: cell-based, human; conditions: SOJ-6 cells, 24 h
Protocol: as §1

B1: 16D10: IgM monoclonal antibody recognizing FAPP/BSDL; producing cells deposited with the CNCM under the number I-3188 (antibody, listed as Mus musculus, V domains shown)
VH: QVQLQQSDAELVKPGASVKISCKASGYTFTDHAIHWVKQKPEQGLEWIGYISPGNDVIKFNEKFKGKATLTADKSSSTAYMQLNSLTSEDSAVYFCKRSEGGVFDYWGQGTTLTVS
VL: NIMMTQSPSSLAVSAGEKVTMSCKSSQSVLYSSNQKNFLAWYQQKPGQSPKLLIYWASTRESGVPDRFTGSGSGTDFTLTISSVQAEDLAVYYCHQYLSSYTFGGGTKLEIK
phosphorylation of β-catenin ([1]; SOJ-6): phosphorylated | expression of β-catenin ([1]; SOJ-6, 25 μg/ml, 24 h): did not induce a significant change in the expression of β-catenin | E-cadherin protein expression ([1]; SOJ-6, 25 μg/ml, 24 h, versus irrelevant IgM): high E-cadherin protein expression | localization of β-catenin ([1]; SOJ-6, fluorescence microscopy, plasma membrane in untreated cells): found in the cytosolic compartment | apoptosis by Annexin V and Annexin V/PI staining [2]: induced significant levels of apoptosis | effect on the cell cycle [3]: no effect on the cell cycle was observed | effect of trypsin incubation on binding to SOJ-6 cells ([4]; antibody incubated with trypsin): substantially decrease the binding | binding to antigen on SOJ-6 cells ([4]; flow cytometry / FACS): found to bind antigen present on SOJ-6 cells | apoptosis observed by DAPI staining (nuclear fragmentation) [5]: significant levels of apoptosis | binding to antigen on PANC-1 cells [6]: did not bind antigen present on PANC-1 cells | reduction of SOJ-6 cell proliferation ([7]; 25 μg/ml): approximately 50% | reduction of SOJ-6 cell proliferation ([7]; 50 μg/ml): approximately 50% | staining of healthy tissues (tonsils, salivary gland, peripheral nerve, eyes, bone marrow, ovary, oviduct, parathyroid, prostate, spleen, kidney, adrenals, testes, thymus, ureters, uterus, bladder) [8]: positive staining | Bax protein level [9]: increase of Bax protein | anti-apoptotic protein Bcl-2 level [9]: decrease of the anti-apoptotic protein Bcl-2 | mediators of induced apoptosis (caspases, PARP cleavage) [9]: mediated via caspases 8 and 9, and poly-ADP ribose polymerase (PARP) cleavage
